According to the supplement of paper PMC7125110:
Fewer inactive variants are shown than the library holds.

B1: glmS ribozyme (parent)
chain: AUAAAAGCGCCAGAACUACAGAAAUGUAGUUGACGAGGAGGAGGUUUAUCGAAUUUUCGGCGGAUGCCUCCAAA

How the values were obtained:
Details in all cases: with glucosamine-6-phosphate
glucosamine-6-phosphate [1] = variants of: B1; assay: self-cleavage kobs at 160 uM GlcN6P; higher = faster cleavage; RNA array
In short: (§1)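 kobs was derived by fitting per-tile medians to one- or two-exponential decays after normalising signals to baseline and to non-cleaving reference variants. Those signals came from barcoded ribozyme variants transcribed in situ by E. coli RNA polymerase on sequenced MiSeq chips, followed through a hybridised Cy3 probe at 37 °C and imaged over ~14 h. Glucosamine-6-phosphate (40 μM to 10 mM) in HEPES/KCl/Mg(OAc)2 buffer was flowed in. Weighted Michaelis–Menten fits across concentrations then gave kcat and KM.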

glucosamine-6-phosphate [2] = variants of: B1; assay: self-cleavage kobs at 2500 uM GlcN6P; higher = faster cleavage; RNA array
In short: as §1

glucosamine-6-phosphate [3] = variants of: B1; assay: self-cleavage kobs at 10000 uM GlcN6P; higher = faster cleavage; RNA array
In short: as §1

glucosamine-6-phosphate [4] = variants of: B1; assay: self-cleavage kobs at 640 uM GlcN6P; higher = faster cleavage; RNA array
In short: as §1

AUAAAAGAGCCAGAACUACAGAAAUGUAGUUGACGCGGAGGCGGUUUAUCGAAUUUUCGGCGGAUCACUCCAAA
self-cleavage kobs at 160 uM GlcN6P (glucosamine-6-phosphate [1]): < 1e-05 s⁻¹
self-cleavage kobs at 2500 uM GlcN6P (glucosamine-6-phosphate [2]): < 1e-05 s⁻¹

AUAAAAUCGCCAGAACUACAGAAAUGUAGUUGACGAGGAGGAGGUUUAUCGAAUGUGCGGAGGCUGCUUCCAAA
self-cleavage kobs at 160 uM GlcN6P (glucosamine-6-phosphate [1]): < 1e-05 s⁻¹
self-cleavage kobs at 2500 uM GlcN6P (glucosamine-6-phosphate [2]): < 1e-05 s⁻¹

AUAAAAGAGCCAGAACUACAGAAAUGUAGUUGACGAGGAGGAGGUUUAUCGAUUCUUUGGCGGAUGCCCCCAAA
self-cleavage kobs at 160 uM GlcN6P (glucosamine-6-phosphate [1]): < 1e-05 s⁻¹

AUAAAAUCGCCAGAACUACAGAAAUGUAGGUGAGGAGGAGGAGGUUUAUCGAAUUUUCGGCGGAUGCCUCCAAA
self-cleavage kobs at 160 uM GlcN6P (glucosamine-6-phosphate [1]): < 1e-05 s⁻¹
self-cleavage kobs at 2500 uM GlcN6P (glucosamine-6-phosphate [2]): < 1e-05 s⁻¹
self-cleavage kobs at 10000 uM GlcN6P (glucosamine-6-phosphate [3]): < 1e-05 s⁻¹

AUAAAAGAGCCUGAAGUACAGAAAUGUAGUUGACGAGGAGAAGGUUUAUCGAAUUUUCGGCGGAUGCAUCCAAA
self-cleavage kobs at 160 uM GlcN6P (glucosamine-6-phosphate [1]): < 1e-05 s⁻¹
self-cleavage kobs at 640 uM GlcN6P (glucosamine-6-phosphate [4]): < 1e-05 s⁻¹
self-cleavage kobs at 2500 uM GlcN6P (glucosamine-6-phosphate [2]): < 1e-05 s⁻¹

AUAAAAGAGUCAGAACUACAGAAAUGUAGUAGACGAGGAGGAGGUUUAUCGAAUUUUCGGCGGAUGCCUCCAAA
self-cleavage kobs at 160 uM GlcN6P (glucosamine-6-phosphate [1]): < 1e-05 s⁻¹
self-cleavage kobs at 10000 uM GlcN6P (glucosamine-6-phosphate [3]): < 1e-05 s⁻¹

AUAAAAGAGCCAGAACUACAGAAAUGUAGUUGACGAGGAGGUGGUUUAUCGAAUUUUCGGCGGAUGCCUCCAAA
self-cleavage kobs at 160 uM GlcN6P (glucosamine-6-phosphate [1]): < 1e-05 s⁻¹
self-cleavage kobs at 640 uM GlcN6P (glucosamine-6-phosphate [4]): < 1e-05 s⁻¹

AUAAAAGAGCCAGAACUACAGAAAUGUAGUUGACGAGGGGGAGGUUUAUCGUAUUUUCGGCGGAUGCCUCCAAA
self-cleavage kobs at 160 uM GlcN6P (glucosamine-6-phosphate [1]): < 1e-05 s⁻¹
self-cleavage kobs at 640 uM GlcN6P (glucosamine-6-phosphate [4]): < 1e-05 s⁻¹
self-cleavage kobs at 2500 uM GlcN6P (glucosamine-6-phosphate [2]): < 1e-05 s⁻¹

AUAAAAGAGCCCGAACUACAGAAAUGUAGUUGACGAGGAGGAGGUUUAUCGAAUUUUCGGCGGAUGCCUCCAAA
self-cleavage kobs at 160 uM GlcN6P (glucosamine-6-phosphate [1]): < 1e-05 s⁻¹
self-cleavage kobs at 640 uM GlcN6P (glucosamine-6-phosphate [4]): < 1e-05 s⁻¹
self-cleavage kobs at 2500 uM GlcN6P (glucosamine-6-phosphate [2]): < 1e-05 s⁻¹
self-cleavage kobs at 10000 uM GlcN6P (glucosamine-6-phosphate [3]): < 1e-05 s⁻¹

AUAAAAUCGCCAGAACUACAGAAAUGUAGUUGACGAGGAGGAGGUUUAUCGAAUUUUCGGCGGAUGCCCCCAAA
self-cleavage kobs at 160 uM GlcN6P (glucosamine-6-phosphate [1]): < 1e-05 s⁻¹
self-cleavage kobs at 2500 uM GlcN6P (glucosamine-6-phosphate [2]): < 1e-05 s⁻¹

AUAAAAGAGCCAGAACUACAGAAAUGUAGUUGACGAGGAGGAGGUUUAUCGAUUGUUCGGCGGAUGCCUCCAAA
self-cleavage kobs at 160 uM GlcN6P (glucosamine-6-phosphate [1]): < 1e-05 s⁻¹
self-cleavage kobs at 640 uM GlcN6P (glucosamine-6-phosphate [4]): < 1e-05 s⁻¹

AUAAAAGAGCAAGAACUACAGAAAUGUAGUUGACGAGGAGGAGGUUUAUCGAAUUUUCGGCGGAUGCCUCCAAA
self-cleavage kobs at 160 uM GlcN6P (glucosamine-6-phosphate [1]): < 1e-05 s⁻¹
self-cleavage kobs at 640 uM GlcN6P (glucosamine-6-phosphate [4]): < 1e-05 s⁻¹
self-cleavage kobs at 10000 uM GlcN6P (glucosamine-6-phosphate [3]): < 1e-05 s⁻¹

AUAAAAUCGCCAGAACUACAGAAAUGUAGUUGACGAGGAGGAGGUUUAGCGAAUUUUCGGCGGAUGCCUCCAAA
self-cleavage kobs at 160 uM GlcN6P (glucosamine-6-phosphate [1]): < 1e-05 s⁻¹
self-cleavage kobs at 640 uM GlcN6P (glucosamine-6-phosphate [4]): < 1e-05 s⁻¹
self-cleavage kobs at 2500 uM GlcN6P (glucosamine-6-phosphate [2]): < 1e-05 s⁻¹
self-cleavage kobs at 10000 uM GlcN6P (glucosamine-6-phosphate [3]): < 1e-05 s⁻¹

AUAAAAGAGGCAGAACUACAGAAAUGUAGUUGAAGAGGAGGAGGUUUAUCGAAUUUUCGGCGGAUGCCUCCAAA
self-cleavage kobs at 160 uM GlcN6P (glucosamine-6-phosphate [1]): < 1e-05 s⁻¹
self-cleavage kobs at 640 uM GlcN6P (glucosamine-6-phosphate [4]): < 1e-05 s⁻¹
self-cleavage kobs at 2500 uM GlcN6P (glucosamine-6-phosphate [2]): < 1e-05 s⁻¹

AUAAAAGAGCCAGAACUACAGAAAUGUAGUUGUCGAGGAGGAGGUUUAUCAAAUUUUCGGCGGAUGCCUCCAAA
self-cleavage kobs at 160 uM GlcN6P (glucosamine-6-phosphate [1]): < 1e-05 s⁻¹
self-cleavage kobs at 640 uM GlcN6P (glucosamine-6-phosphate [4]): < 1e-05 s⁻¹
